Results taken from PMC9820535.

Molecular target: T1, rDmeR (Vibrio parahaemolyticus RIMD 2210633) (UniProt Q87GM9)
T1 sequence: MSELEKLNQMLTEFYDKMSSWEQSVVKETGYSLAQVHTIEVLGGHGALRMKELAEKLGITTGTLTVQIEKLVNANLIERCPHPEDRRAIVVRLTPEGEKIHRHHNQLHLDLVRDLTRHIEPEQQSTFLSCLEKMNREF
Test: EMSA
Settings: 10 mM Tris pH 7.4, 150 mM NaCl, 0.1 mM DTT, 0.1 mM EDTA or 0.5 mM CoSO4, 200 ng poly(dI:dC), 20 ng DNA, 0-1.0 ug rDmeR in 20 uL, 25 C 30 min, 6% native PAGE

| Sequence | binding |
| --- | --- |
| CAAGGGCAACATCTTACAGCCATGACCGGTAAACAATGCATTTACCTAATTGACGACTTTGCGTCGGAATTAGATAGCCAACGTCGCAAGCGTCTTGCAGATTGCTTGAAAGAGACAGGCGCACAAGTATTTGTAAGCTCTATCACTGAAAACCAAATCGCCGACATGCTCGACGATAATGGCAAATTGTTTCATGTGGAACATGGCAGGATAGA (double strand) [PgyrB promoter probe] | no binding |
| TAAGCGGCTGATTCCCAAACAAGGCCGCATATGTTCATGCGGGGAGGCATCAGATTGGCCAATCTTGAGTGCAGTGATGAACGCCTTTCTTAGTTTTCTATGTTGACTTTGTTTGATGGTCAAACTAAATTTAAATCAAATATTTTGATTATCAAACAAAATGAGCAATAACGATATGATTTATCTATGGCAATAGCACAACACACGC (double strand) [PdmeRF promoter probe (WT)] | binds |
